Source: patent US12686723 (SHANGHAI ACEMAB, dated 2026)
Changes are numbered by the printed parent chain. One block for each binder: values may come before it.

What was measured:
[1] = target: T1, human BCMA antigen (6His tag, product number CC28, Novoprotein) (human, UniProt Q02223 1-54); test: SPR, Biacore T200, BCMA-6His on chip, antibody as analyte
T1 construct: Bought reagent; not shown: 6His tag
T1 sequence (looked up): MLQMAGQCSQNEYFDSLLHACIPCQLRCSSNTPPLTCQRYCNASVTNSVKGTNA
From the text: Example 8: Affinity Analysis of Anti-Human BCMA Monoclonal Antibody Binding to Human BCMA The kit, consumables and instruments used in this example were purchased from GE Healthcare; According to the instructions provided, human BCMA antigen (6His tag, product number CC28, Novoprotein) is conjugated to the chip surface, and then HBS-EP+ buffer solution is double-diluted to prepare different concentrations of the antibody to be analyzed, and meanwhile set the 0 concentration point and the quality control concentration point; According to the manufacturer's standard setting procedure of Biacore T200, the flow cell that captures ligand is used as the detection channel, the flow cell of un-captured ligand as the reference channel, and the HBS-EP+ buffer solution as the mobile phase, and different concentrations of the antibody solution to be analyzed are injected respectively; The SPR signal is collected by the Biacore T200 Control software, and then the data is processed by the Biacore T200 Evaluation analysis software; Finally, the Ka, Kd and KD values are calculated for the kinetic analysis or steady-state analysis of the obtained kinetic curves, and the results are shown in Table. 2.

[2] = target: T2, commercial recombinant human BCMA protein (Fc tag, Cat. No. CS79, Novoprotein) (human, UniProt Q02223 1-54); test: ELISA, BCMA-Fc (CS79) coated on plate, hybridoma supernatant diluted 1:50, anti-mouse IgG-HRP
T2 construct: Bought reagent; also called Human recombinant BCMA protein; BCMA antigen (Novoprotein cat: CS79); not shown: Fc tag
T2 sequence (looked up): T1 sequence (looked up)
Protocol: Dilute BCMA antigen (Novoprotein cat: CS79) with PBS to 0.5 ng/μl; add 100 μl/well of antigen to a 96-well flat-bottom ELISA plate (Maxisorp), seal with cling film, and store at 4° C. overnight; pour off the antigen the next day. After that, wash with PBS (200 μl/well), pour off the PBS, pat dry on absorbent paper and add 200 μl of blocking solution to each well and block at room temperature for 2 hours. After blocking, pour off the blocking solution and pat dry on absorbent paper; add 50 μl of HRP-conjugated goat anti-mouse IgG secondary antibody diluted in diluent, place at room temperature for 1 hour, then pour off the liquid and wash 5 times with washing solution (200 μl/well), finally pour off the washing solution and pat dry on absorbent paper; add 50 μl/well of TMB-hydrogen peroxide urea solution substrate solution and place it at room temperature for 3-5 minutes, add 50 μl/well of 0.25M sulfuric acid to stop the reaction, the optical density was measured by obtaining the absorbance with a 450 nm filter under a multifunctional microplate reader.

B1: anti-human BCMA monoclonal antibody 15A7 (antibody, human IgG1, kappa, V domains shown)
VH: EVQLVESGGGLVQPGGSLRLSCEASGFTFDDCAMHWVRQTPGKGLEWVSGISWNSDTMGYADSVKGRFIISRDNAKNSLYLQMNSLRVEDTALYHCTRVRAAVFDYWGQGVLVTVSS
VL: DIHMTQSPSSLSASVGDRVTITCRASQSISSYLNWFQQKPGKAPTVLIYAASSLQSGVSSRFSGRGSGADFTLTISSLQPEDFASYFCQQSFSPLYIFGQGTKVEIKR
notes: Tested as hybridoma supernatant (ELISA) or Protein G-purified hybridoma antibody (SPR); constant region of the tested hybridoma material is uncertain (anti-mouse IgG secondary used)
Kd [1]: 125 pM
koff [1]: 6.02e-05 s⁻¹
kon [1]: 480000 M⁻¹ s⁻¹
OD450 [2]: 2.12

B2: anti-human BCMA monoclonal antibody 23C4 (antibody, human IgG1, kappa, V domains shown)
VH: EVQLVESGGGLVQPGRSLRLSCAASGFTFADHAMHWVRQAPGKGLEWVSGISWNSDHIGYADSVKGRFTISRDNAKNSLYLQMNSLRPEDTALYYCAKDIFSPTGDGYWGQGTLVTVSS
VL: DIQMTQSPSSLSASVGDRVTITCRASQDIRNNLGWFQQKPGKTPKRLIYAASSLQSGVPSRFSGSGSGTEFTLIISSLQPEDFATYYCLHHNSYPPTFGQGTKVEIKR
notes: as for B1
Kd [1]: 146 pM
koff [1]: 7.01e-05 s⁻¹
kon [1]: 481000 M⁻¹ s⁻¹
OD450 [2]: 2.86

B4: anti-human BCMA monoclonal antibody 20A9 (antibody, human IgG1, kappa, V domains shown)
VH: QVQLVQSGAEVKKPGASAKVSCKASGYTFTSYAMQWVRQAPGQRLEWMGWINAGNGNIKYSQKFQGRVTITRDTSASTAYMELSSLRSEDTAVYYCARGGRLELDVYYYFYYMDVWGKGTTVTVSS
VL: DIVMSQSPDSLAVSLGERTTINCKSSQSVLHSSQNKNYLAWYQQKPGQPPNPLIHWASTRESGVPDRFSGSGSGTDFTLTISSLQAEDVAVYYCQQYYRVPFTFGPGTKVDIKR
notes: as for B1
Kd [1]: 40.9 pM
koff [1]: 2.34e-05 s⁻¹
kon [1]: 573000 M⁻¹ s⁻¹
OD450 [2]: 2.2

B5: anti-human BCMA monoclonal antibody 15H6 (antibody, human IgG1, kappa, V domains shown)
VH: B4 VH with I58T, V106I
VL: B4 VL
notes: as for B1
Kd [1]: 88.5 pM
koff [1]: 4.28e-05 s⁻¹
kon [1]: 483000 M⁻¹ s⁻¹
OD450 [2]: 2.49

B6: anti-human BCMA monoclonal antibody 7E11 (antibody, human IgG1, kappa, V domains shown)
VH: EVQLVESGGGLVQPGGSLRLSCAASGFTFSYYDMHWVRQGTGKGLEWVSGIGTSGDTYYPDSVKGRFTISRENAKNSLNLQMNSLRDGDTAMYYCARGPYYYNSSGYYSYDALDIWGQGTMVTVTS
VL: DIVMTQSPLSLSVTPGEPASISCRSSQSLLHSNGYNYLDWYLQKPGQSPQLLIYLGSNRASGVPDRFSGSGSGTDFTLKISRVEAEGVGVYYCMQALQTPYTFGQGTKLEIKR
notes: Tested as hybridoma supernatant (ELISA) or Protein G-purified hybridoma antibody (SPR)
Kd [1]: 50.4 pM
koff [1]: 2.57e-05 s⁻¹
kon [1]: 510000 M⁻¹ s⁻¹
OD450 [2]: 2.3

B9: anti-human BCMA monoclonal antibody 20A2 (antibody, human IgG1, kappa, V domains shown)
VH: QIQLVQSGAEVKKPGASVKVSCKASGYTFTAYYLHWVRQSPGHGLEWMGRIYPNSGDTNYAQKFQGRVTMTRDTSINTAYMELSRLRSDDTALYYCARGFNWNYEGGFDIWGQGTMVTVSS
VL: DVVMTQSPLSLSVTLGQPASISCRSGQSLVYSDGNTYLNWFQQRPGQSPRRLIYKLSSRDSGVPDRFSGSGSGTDFTLKISRMEAEDVGVYYCMQRTHWPPTFGQGTKVEIKR
notes: as for B1
Kd [1]: 65.6 pM
koff [1]: 5.29e-05 s⁻¹
kon [1]: 807000 M⁻¹ s⁻¹

B11: anti-human BCMA monoclonal antibody 11B10 (antibody, human IgG1, kappa, V domains shown)
VH: QVQLVQSGAEVKKPGASVKVSCKASGYTFTSYAMHWVRQAPGQRLEWMGWINTGNGNTKYSQKFQGRVTITRDTSASTAYMELSSLRSEDTAVYYCARGGSITGNIFYYYYYMDVWGKGTTVTVAS
VL: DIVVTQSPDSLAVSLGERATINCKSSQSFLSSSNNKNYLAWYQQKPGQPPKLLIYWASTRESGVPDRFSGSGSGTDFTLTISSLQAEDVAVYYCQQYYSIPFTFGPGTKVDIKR
notes: as for B1
Kd [1]: 253 pM
koff [1]: 0.000269 s⁻¹
kon [1]: 1.06e+06 M⁻¹ s⁻¹
OD450 [2]: 2.55

Now from value to binder:

Kd [1]: 11.7 pM
koff [1]: 7.22e-05 s⁻¹
kon [1]: 6.18e+06 M⁻¹ s⁻¹
OD450 [2]: 2.59
B3: anti-human BCMA monoclonal antibody 27A7 (antibody, human IgG1, kappa, V domains shown)
VH: B2 VH with A30D, D56V, P88A, G107D
VL: B2 VL with I74T
notes: as for B1

Kd [1]: 47.7 pM
koff [1]: 2.43e-05 s⁻¹
kon [1]: 510000 M⁻¹ s⁻¹
OD450 [2]: 2.4
B7: anti-human BCMA monoclonal antibody 18D10 (antibody, human IgG1, kappa, V domains shown)
VH: EVRLVESGGGLVQPGRSLRLSCAASGFTSNDYAMHWVRQAPGRGLEWVSGISWNSDSIGYADSVKGRFTISRDNAKNSLYLQMNSLRTEDTALYYCATVVSAYFDYWGQGTLVTVSS
VL: DIQMTQSPSSLSASVGDRVTITCRTSQSISTYLNWYQQKPGKAPKLLIYAASSLKSGVPSRFSGSGSGTDFTLTISSLQPEDFATYFCQGSYIIPLTFGGGTRVEIKR
notes: as for B1

Kd [1]: 48.2 pM
koff [1]: 2.78e-05 s⁻¹
kon [1]: 576000 M⁻¹ s⁻¹
OD450 [2]: 3
B8: anti-human BCMA monoclonal antibody 31F5 (antibody, V domains shown)
VH: EVQLVESGGGLVQPGRSLRLSCAASGFTFDDYAMHWVRQAPGKGLEWVSGISWNSDNIAYADSVKGRFTISRDNAENSLYLQMNSLRTEDTAIYYCAKVAAATFDYRGQGTLVTVSS
VL: DIQMTQSPSSLSASVGDRVTITCRASQSISSYLNWYQQKPGKAPKLLIFAASSLQSGVPSRFSGSGSGTDFTLTISSLQPEDFATYSCQQSFSIPFTFGPGTKVDIKR
notes: as for B1

Kd [1]: 34.5 pM
koff [1]: 1.63e-05 s⁻¹
kon [1]: 472000 M⁻¹ s⁻¹
OD450 [2]: 2.71
B10: anti-human BCMA monoclonal antibody 11G1 (antibody, V domains shown)
VH: EVQLVESGGGLVQPGRSLRLSCEASGFTFDDYAMHWVRQPPGKGLEWVSGISWNSDNIGYADSVKGRFTISRDNAKNSLYLQMNSLRAEDTALYYCAKIQSGSSFDYWGQGTLVTVSS
VL: DIQMTQSPSSLSASVGDRVTITCRASQSIINFLNWYQQKPGKAPKLLIYGASNLQSGVPSRFSGSGSGTDFTLTISSLQPEDFATYCCQQSSSIPLTFGGGTKVEIKR
notes: as for B1
